US20060153853A1 (UNIVERSITY OF ADELAIDE, published 2006)

How the values were obtained:
[1] = molecular target: T1, IGF-II (insulin-like growth factor II) (UniProt P01344 25-91); test: SPR (BIAcore), IGF-II amine-coupled to CM5 chip; ratio against hIGFBP-2
T1 construct: Amine-coupled (70 RU) to a CM-5 biosensor chip
Protocol: (§1) The IGF surface was regenerated with 10 mM HCl.
(§2) Table 3. […] Data was analysed using BIAevaluation software 3.0 and fit to a Langmuir 1:1 binding model. The dissociation constant (KD) was determined from the calculation of kd/kₐ, where kₐ is the association rate and kd is the dissociation rate.

[2] = molecular target: T2, IGF-I (insulin-like growth factor I) (UniProt P05019 49-118); test: SPR (BIAcore), IGF-I amine-coupled to CM5 chip; ratio against hIGFBP-2
T2 construct: Amine-coupled (70 RU) to a CM-5 biosensor chip; also added to HT-29 cells; also called IGF-1
T2 sequence (P05019 49-118 limits assumed): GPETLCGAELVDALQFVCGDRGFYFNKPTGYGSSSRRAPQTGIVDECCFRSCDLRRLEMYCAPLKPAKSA
Protocol: as §1
(§3) The dissociation constant (KD) was determined from the calculation of kd/kₐ, where kₐ is the association rate and kd is the dissociation rate.

[3] = molecular target: T1, IGF-II (insulin-like growth factor II); test: SPR (BIAcore) on immobilised IGF-II; text summing up Table 3
Protocol: as §1, §2

[4] = molecular target: T2, IGF-I (insulin-like growth factor I); test: SPR (BIAcore) on immobilised IGF-I; text summing up Table 2
Protocol: as §1, §3

T1 sequence (P01344 25-91 limits assumed): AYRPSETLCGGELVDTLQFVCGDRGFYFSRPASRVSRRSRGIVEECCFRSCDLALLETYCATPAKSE

B1: K227AHis hIGFBP-2 (other, human)
chain: EVLFRCPPCTPERLAACGPPPVAPPAAVAAVAGGARMPCAELVREPGCGCCSVCARLEGEACGVYTPRCGQGLRCYPHPGSELPLQALVMGEGTCEKRRDAEYGASPEQVADNGDDHSEGGLVENHVDSTMNMLGGGGSAGRKPLKSGMKELAVFREKVTEQHRQMGKGGKHHLGLEEPKKLRPPPARTPCQQELDQVLERISTMRLPDERGPLEHLYSLHIPNCDAHGLYNLKQCKMSLNGQRGECWCVNPNTGKLIQGAPTIRGDPECHLFYNEQQEARGVHTQRMQHHHHHH
notes: mature
**Q.** What does the source list for B1?
**A.** Rel. KD (KD of hIGFBP-2/KD of hIGFBP-2 mutant) [1]: 1.27; Rel. KD (KD of hIGFBP-2/KD of hIGFBP-2 mutant) [2]: 1.34

B2: K180A K181AHis hIGFBP-2 (other, human)
chain: EVLFRCPPCTPERLAACGPPPVAPPAAVAAVAGGARMPCAELVREPGCGCCSVCARLEGEACGVYTPRCGQGLRCYPHPGSELPLQALVMGEGTCEKRRDAEYGASPEQVADNGDDHSEGGLVENHVDSTMNMLGGGGSAGRKPLKSGMKELAVFREKVTEQHRQMGKGGKHHLGLEEPAALRPPPARTPCQQELDQVLERISTMRLPDERGPLEHLYSLHIPNCDKHGLYNLKQCKMSLNGQRGECWCVNPNTGKLIQGAPTIRGDPECHLFYNEQQEARGVHTQRMQHHHHHH
notes: mature; also called K180A, K181A mutation
**Q.** For B2, which “Rel. KD (KD of hIGFBP-2/KD of hIGFBP-2 mutant)” value (shortened to “Rel. KD”) [1] is on record?
**A.** 0.68

**Q.** And the “Rel. KD” value [2]?
**A.** 0.87

B3: K234AHis hIGFBP-2 (other, human)
chain: EVLFRCPPCTPERLAACGPPPVAPPAAVAAVAGGARMPCAELVREPGCGCCSVCARLEGEACGVYTPRCGQGLRCYPHPGSELPLQALVMGEGTCEKRRDAEYGASPEQVADNGDDHSEGGLVENHVDSTMNMLGGGGSAGRKPLKSGMKELAVFREKVTEQHRQMGKGGKHHLGLEEPKKLRPPPARTPCQQELDQVLERISTMRLPDERGPLEHLYSLHIPNCDKHGLYNLAQCKMSLNGQRGECWCVNPNTGKLIQGAPTIRGDPECHLFYNEQQEARGVHTQRMQHHHHHH
notes: mature; also called K234A hIGFBP-2; K234AHis IGFBP-2
**Q.** Which results are given for B3?
**A.** Rel. KD (KD of hIGFBP-2/KD of hIGFBP-2 mutant) [1]: 0.37; Rel. KD (KD of hIGFBP-2/KD of hIGFBP-2 mutant) [2]: 0.64

B4: K237AHis hIGFBP-2 (other, human)
chain: EVLFRCPPCTPERLAACGPPPVAPPAAVAAVAGGARMPCAELVREPGCGCCSVCARLEGEACGVYTPRCGQGLRCYPHPGSELPLQALVMGEGTCEKRRDAEYGASPEQVADNGDDHSEGGLVENHVDSTMNMLGGGGSAGRKPLKSGMKELAVFREKVTEQHRQMGKGGKHHLGLEEPKKLRPPPARTPCQQELDQVLERISTMRLPDERGPLEHLYSLHIPNCDKHGLYNLKQCAMSLNGQRGECWCVNPNTGKLIQGAPTIRGDPECHLFYNEQQEARGVHTQRMQHHHHHH
notes: mature
**Q.** With B4 as the binder, how does the “fold higher affinity than native hIGFBP-2” value [3] read?
**A.** ~2 fold

**Q.** And the “fold higher affinity than native hIGFBP-2” value [4]?
**A.** ~2 fold

**Q.** And the “Rel. KD” value [1]?
**A.** 2.9

**Q.** What about the “Rel. KD” value [2] of the same binder?
**A.** 2.29
